The nanobody polyreactivity screen of Harvey et al. (2022)

Assay: yeast display, Sf9 membrane polyspecificity reagent, FACS + sequencing; frameworks hold sequencing errors
In short: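 Nanobodies from a synthetic yeast display library (Saccharomyces cerevisiae BJ5465), induced 36–48 hours with galactose, were stained 1 hour at 4 °C with 10% biotinylated, detergent-solubilized Sf9 membrane reagent, enriched on streptavidin microbeads, then FACS-sorted. Anti-HA (expression) and streptavidin (reagent binding) fluorescence set low and high (top ~1%) gates. Polyreactivity labels come from the gate of origin. Genes were colony-PCR amplified, MiSeq 2 × 250 sequenced and filtered by CDR length.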

Sequence	polyreactivity (PSR sort gate)
QVLLQESGGLGQAGCSLPMSCAASGSISTALSMGWYRQAPGKERELVATISDGASTNYADSVKGRFTISRVNAKNTVYLQMNSLKPEDTEVYYCADQSQYRQDHRYWGQGTQVTVSS	high polyreactivity
QVLLVESAAGLVQAGGSLRLSCAASGSTFQGNAMGGYRKAPGKERELVAAISRSGGSTYADSVKGRFTISRDNAKNTVYLQLNSLKPEDTAVYYCAAYSGVGYLWFDYWGQGTQVTVSS	low polyreactivity
QVLLVESCGGLVQAGGSLRLSCAASGRIFPLYAMGWYRQAPGKERELVAAISSGGTTYYADSVKGRFTISRDNAKNTVYLQMNSLKPEDTAVYYCNVEYVISWWMYDYWGQGTQVTVSS	low polyreactivity
QVLLVESGGCLVQAGGILRLSCAASGIIFRSNVMGWYRQEPGKASELVAAISTGGGRTYYADSVKGRFTISRDNAKNTVYLQMNSLKPEDTAVYYCATRDIGKQWTRYYYWGQGTQVTVSS	high polyreactivity
QVLLVESGGGLVHAGGSLRLSCAASGSISKINAMRRYRQAPGKERELVAAINTGDSTYYADSVKGRFTISRDNAKYTGYLQMNSLKPEDTAVYYCAAEGSPSGYDYWGQGTQVNVSS	low polyreactivity
QVLLVESGGGLVQAGGPLRLSCAASGFIIRTNAMGWYREEPGKERELDAAISRRGRTDYADSVKGRFTISRDNAKNTVYLQMKSLTPEESAVYYCNAYYAIQDSVHRYYFWGQGTQGTVSS	high polyreactivity
QVLLVESGGGLVQAGGSLRIICAASGLTFSDYAMRWYRQAPGKERELVAGISSGGSTYYADSVKGRFTISRDNAKNTVYLQMNSLKPEDTAVYYCAATRYNRWPIKFDYWGQGTQVTVSS	high polyreactivity
QVLLVESGGGLVQAGGSLRISCAASVRIVKSYAMGWYRQAPGKESELVAAISRGGRTNYADSVKGRFTISRDNAKNTVYLQMNSLKPEDTAVYYCAARFITPYDHYGYWGQGTQVTVSA	high polyreactivity
QVLLVESGGGLVQAGGSLRLSCAASGFIFRPNAMGWYRQAPGKERELVARITYRGGSTYYADSVKGRFTISRDNAKKTVYLKMNSLKPEDTAVYYCAARAVTYAGYTYNYWGQGTQVTVSS	high polyreactivity
QVLLVESGGGLVQAGGSLRLSCAASGFTFQLYAMGWYRQAPGKEREIVSAIRRNGGSTYYADSVKGRFTISRDNAKNTVYLQMNSLKPDDTAVYYCAADWYSYLHGTKYGYWGQGTQVTVSS	high polyreactivity
QVLLVESGGGLVQAGGSLRLSCAASGRIFYSNVMGWYIQAPGKERELVAAISGRTGGTYYADSVKGRFTISRDNAKNTVYLQMNSLKPEDTAVYYCAARVIYYYGSGPYDYWGQGTQVTVSS	low polyreactivity
QVLLVESGGGLVQAGGSLRLSCAASGRTFSINAMGWDRQAPGKERELVAAITKRRSTYYADSVKGRFTISRDNAKNSVYLQMNSLKPEDTAVYYCNARYRGRVYDRFGYWGQGTQVTVSS	high polyreactivity
QVLLVESGGGLVQAGGSLRLSCAASGSIFGQYTMGWYRQAPGKERELVAAINSSGDSTFYADSVKGRFTISRDNAKNTVYLQMNSLKPEDTAVYYCAADPYRYYFRAYGWHREGYYWGQGTQVTVSS	low polyreactivity
QVLLVESGGGLVQAGGSLRLSCAASGSIFYGYPMGWYRQAPGKERELVADIRSSGGSTYYADSVKGRFTISRDNAMNTVYLQMNSLKPEDTAVYYCAADSQELHQNSDYWGQGTQVTVSS	low polyreactivity
QVLLVESGGGLVQAGGSLRLSCAASGSNFYRNAMGWYRQAPGKERDFVAAISRSTGRTFYADSVKGRFTISRDNAKNTVYLQMKSLQPEDTAVYYCDAAAKAGTTPTRSYWRHDSWGQGTQVSVSS	high polyreactivity
QVLLVESGGGLVQAGGSLRLSCAASGSTFLRYTMGWYRQAPGKERELVAAINYGGGSTYYADSVKGRFTISRDNAKNTVYLQMNSLKPEDTAVYYCAAGFFRSAHGGKFYYWGQGTQVTVSS	high polyreactivity
QVLLVESGGGLVQAGGSLRLSCAASGSTFPLYAMGWYRQAPGTERELVAAITSGGGNTYYADSVMGRFTISRDKAQNTVYLQMNSLKPEDTAVYYCAAVGGYKTYYSYEYDYWGQGTQVTVSS	low polyreactivity
QVLLVESGGGLVQAGGSLRLSCAASGSTFVVNTMRWYRLAPGKERELVAAISTGSSTYADSVKGRFTISRDNAKKTVYLQMNSLKPEDTAVYYCNTAFPGKYDYWGQGTQVTVSS	low polyreactivity
QVLLVESGGGLVQAGGSLRLSCASSGRILGYYAKGWYRQAPGKERELVAGITYSAGRTYYADSVKGRFTISRDNSKNTVYLQINRQTPEDTAVYYCAKALVRSGSTRGTPGYSYWGQGTQVTVSS	high polyreactivity
QVLLVESGGGLVQAGGSLRVSCAASGLIFSRYTMGGYRQAPGKERELVAAISKTGSSTYYAVSVKGRFTISRDNAKNTVYLQMKSLKPEDTAVYYCATTPTGRKKGDYWGQGTQVTVSS	high polyreactivity
QVLLVESGGGLVQEGGSLRLSCSASGFTFDSNAMGWYRQAPGKERELVAAISTGGSTYYADSVKGRFTISRDNAKNTVYLQMNSLKPEDNAVYYCAREPPYPDTWYGYWGQGSQVTVSS	low polyreactivity
QVLLVESGGGVVQAGGSLRLSCASSGFTYGSYAMGWYRQAPGKERELVAGITRSSGSTYYADSVKGRFTISRDNAKITDYLQMNSLKPEDTAVYYCRQFSVWGYDYWGQGTKVTVSS	high polyreactivity

Sequence	polyreactivity (PSR sort gate)
QVLLVESRGGLVQAGGSLRLSCAASGGTFSYYAMGWYRQAPAKERELVAAISASGGSTYYADSVKGRFTISRDNAMNTVYLQRNSLKPEDTAVYYCNARYPYYFYAGNYWGQGTQVTVSS	low polyreactivity
QVLVGESGGGLVQAGGSLRLSCAASGSTFSNYAMGWYRQAPGTERELVAVSTRGASTYYADSVKGRFTISRDNAKNTVYLQMNTLKPEDTAVYYCAASYWRYRVVHSPYRYYYWGQGTQVNVSS	high polyreactivity
QVMLVESGGGLVQAGGSLRLSCAASGSTFEYYAMGWYRQAPGKERELVATISIDGRTNYADSVKGRFTISRDNAKNTVYLQMNSLNPEDTAVYYCGKRVVVWYFGTGDYWGQGTQVTVSS	low polyreactivity
QVNLVESGGGLVQAGGSLRLRCAASGSIYISYAMGWYRQAPGKERELVATIRSSGGRTHYSDSVKGRFTISRDNAKNTVYLQMNSLKPEDTPVYYCHYGVYQYPQDYDYWGEGTQVTVSS	low polyreactivity
QVPLVESGGGLVHAVGSLRLSCAASGSIFYPYAMGWNRKAPWKERELVARITSGGSTHYADSVKGRFTISRDNDNHNVYLHMNSLKPEDTAVYYFNADYWFVEYDYWGQGTQVTVSS	low polyreactivity
QVPLVESGGGLVQAGGILRLSCAASGRIFLPYAMGWYRQAPGQERELVAAITSSDGSTHYADSVKGRFTISRDNAQNTVYLQMNSLKPEDTAVYYCNAARATYYYYLDDYWGQGTQVTVSS	low polyreactivity
QVPLVESGGGLVQAGGSLRLSCAASGFTFYAYTMGWYRQAPGKERELVAAINKSGSSKYYADSVKGRFTISRDNAKNTVYLQMNSLKPEDTAVYFCNAYYRKVLGYDKMDYWGQGTQVTVSS	high polyreactivity
QVPLVESGGGLVQAGGSLRLSCAASGIIFGKYTMGWYRQAPGKERELVAAISKRGGSTYYADSVKGRFTISRDNAKNTVYLQMYSLKRVDTAVYYCAAERISSYDYWGQGTQVTVSS	high polyreactivity
QVPLVESGGGLVQAGGSLRLSCAASGLIFRTYTMGWYRQAPGKERELVATITRRGGTTYYADSVKGRFTLSRDNAKNTVYLQMNSLKPEDTAVYYCAKSPYYTWKYDYWGQGTQVTVSS	high polyreactivity
QVPLVESGGGLVQAGGSLRLSCAASGLTFDIYTMGWYRQAPGKERELVARISTSGSRTYYADSVKGRFTISRDYAKNTVYLQMNSLIPEDTAVYYCNKDGWIRRRRGSDYWGQGTQVTVSS	high polyreactivity
QVPLVESGGGLVQAGGSLRLSCAASGRTFTPNGMGWYRQAPGKERELVAAITYGGGITDYADSVKGRFTISRDNAKNTVYLQMNSLKPEDTAVYYCAATTLSFEGGKYWSKYDYWGQGTQVTVSS	low polyreactivity
QVPLVESGGGLVQAGGSLRLSCAASGSIFYPYAMGWYRQAPGKERELVASITWSGGSTYYADSVKGRITISRDNATNSVYRQMNSLKPEDTAVYYCAADEKLYITGYDYWGQGTQVTVSS	low polyreactivity
QVPLVESVGGLVQAGGRLRLSCAASGSIFGHNTMGWYREAPGKERELVAAISVSGTRTYYADSVKGRFTISRDNAKNTVYLQMNSLKPEDTAVYYCAAEISRVRQGVAWSYKYEYWGQGTQVTVSS	high polyreactivity
QVPLVESVGGLVQAGGSLRLSCAASGTIFFGYAMGSYRQAPGKERDLVASISSGDTTYYADSVKGRFTISRDNAKNTVYLQMNSLKPEDTAVYYCAAREGQLWEDGDYWGQGTQVTVSS	low polyreactivity
QVPLVETGGGLVQAGGSLRLSCAASGRTFNVYAMGWYRQAPGKERELVASITWDDGTTYNADSVKGRFTNSRDNAKNTVYLQMNSLKPEVTAVYYCAADGIYRGAWSTVYESPGYDYWGQGTQVTVSS	low polyreactivity
QVPQQESGGGLVQAGGSLRLSCAASGTIFQLTVMGRYRQAPGKERELVSSIDYGGNTNYADIVKGRFSISRVNAKNTVYLQMNRLKPEDTSVYYFAASSDSWTTHPYWGQATQVTVSS	low polyreactivity
QVQFVESGGGLVQAGGSLRVSCAASGSTFQGYAMGWSRQAPGKERELVAAISRSGGRTYYADSVKGRFTISRDNAKNTVYLQMNSLKPEDTAVYYCAAEGHELTEGDSWGQGTQVTVSS	low polyreactivity
QVQHEESGGGLVQAGGSLRLSCAASGRTYDPYAMGWYRQAPGKERELVAAISSGGSTNYADSVKGRFTISRDNAKNTVYLQMNSLKPEDTAVYYCGTDSGDGEGDYWGQGSQVTVSS	low polyreactivity
QVQHEESGGGLVQAGGSLRLSCAASGSIFLHYAIGWYRQAPGKERVFVAAISFRSGSTYYADSVKGRFTISRDNAKNTVYLKLNSLKPEDTAVYYCASKSYNFIPGIREYDYWGQGTQVTVSS	low polyreactivity
QVQHEESGGGLVQAGGSLRLSCAASGSIFLWNAMGSYRQAPGKERELVASIGDSTYYADSVKGRFTISRDNAKNTVYLQMNSLKPEDTAVYYCKAEVLNYLVFGYQLCYDYWGQGTQVTVSS	low polyreactivity
QVQHGESGGGLLQAGGSLRLSCAASGFIFGVYEMGWYRQAPGKDTELVAAIMRSGGSTYYADSVKGRFTISRDIAKNTVYLQMNSLKPEDTAVYYCAAAYTGKYRKYDYWGQGTQVTVSS	high polyreactivity
